# Key:
# [1] = target: P. aeruginosa RloA2 (PA0462), residues 18-169 (P. aeruginosa); assay: SEC-MALS; 5 mg/mL (289 µM) protein on Superdex 200 Increase 10/300 in 25 mM Tris-HCl pH 7.5, 300 mM NaCl, 0.7 mL/min
# [2] = target: P. fluorescens RloA (Pfl01_1762), residues 20-178 (P. fluorescens); assay: as above
Substance,stoichiometry N [1],stoichiometry N [2]
"P. aeruginosa RloA2 (PA0462), residues 18-169 (enzyme)",2,
"P. fluorescens RloA (Pfl01_1762), residues 20-178 (enzyme)",,2
